Measured values published in paper PMC3449402.

Biological target: MAb<EGFR> (human)
Assay: SPR

Kd: 120 nM
Substance: soluble construct of the FcγRIIIa ectodomain (from UniProt P08637 17-208) (receptor)
